In article PMC6024848:

Molecular target: AcLys, putative Acinetobacter baumannii AB 5075 prophage endolysin (Acinetobacter baumannii AB 5075 (prophage region))
Assay: SEC; gel permeation (size-exclusion) chromatography of recombinant AcLys; Superose 12 HR10/30 in 50 mM Bis-Tris pH 6.0 named for the purification step; monomer and dimer fractions redistribute to the mixture 3-4 h after separation; more monomer in dilute solution; beta-mercaptoethanol does not affect dimerization; dimer to monomers

Substance: AcLys, putative Acinetobacter baumannii AB 5075 prophage endolysin (enzyme)
- stoichiometry N: 2
